B1: Zinc finger homeobox protein 4, residues 2562 to 2617; numbered along this chain, Q86UP3 (parent)
chain: RLRTTITPEQLEILYEKYLLDSNPTRKMLDHIAREVGLKKRVVQVWFQNTRARERK

Data on 47 variants can be found in the Human Domainome abundance scans (Beltran et al. 2025).

± gives the uncertainty stated by the source.

The variants in this data set derive from B1. The data set is described as follows: abundance fitness (aPCA) (normalised: wild type 0, dead -1); higher = more abundant; growth selection in yeast, the domain comes from the species named. Conditions: Homo sapiens.
RLRTTITPEQLEALYEKYLLDSNPTRKMLDHIAREVGLKKRVVQVWFQNTRARERK [I13A]: the abundance fitness amounted to 0.003 ± 0.08.
Consider RLRTTITPEQLEVLYEKYLLDSNPTRKMLDHIAREVGLKKRVVQVWFQNTRARERK [I13V], for which the abundance fitness is -0.072 ± 0.064.
For RLRTTITPEQLEILYEKYLLDSNPTRKMLDHIAREVGLKKRVVQVWFANTRARERK [Q48A] the value was 0.2 ± 0.093; for RLRTTITPEQLEILYEKYLLDSNPTRKMLDHIAREVGLKKRVVQVWFTNTRARERK [Q48T], 0.008 ± 0.065; for RLRTTITPEELEILYEKYLLDSNPTRKMLDHIAREVGLKKRVVQVWFQNTRARERK [Q10E], -0.641 ± 0.13.
For RLRTTITPEYLEILYEKYLLDSNPTRKMLDHIAREVGLKKRVVQVWFQNTRARERK [Q10Y] the value was -0.856 ± 0.32.
For RLRTTITPEQLEILYEKYLLDSNPTRKMLDHIAREVGGKKRVVQVWFQNTRARERK [L38G] the value was -0.915 ± 0.08.
Turning to RLRTTITPEQLEILYEKYLLDSNPTRKMLDHIAREVGRKKRVVQVWFQNTRARERK [L38R], the abundance fitness is -0.818 ± 0.07.
With RLRTTITPEQLEILYEKYLLDSNPTRKMLDHIAREVGPKKRVVQVWFQNTRARERK [L38P], the abundance fitness was -0.787 ± 0.12.
RLRTTITPEQLEILYEKYLLDSNPTRKMLDHIAREVGSKKRVVQVWFQNTRARERK [L38S]: the abundance fitness was -0.846 ± 0.091.
As for RLRTTITPEQLEILYEKYLLDSNPTRKMLDHIAREVGLTKRVVQVWFQNTRARERK [K39T], the abundance fitness came out at 0.284 ± 0.091.
Turning to RLRTTITPEQLEILYEKYLLDSNPTRKMLDHIAREVGLCKRVVQVWFQNTRARERK [K39C], the abundance fitness worked out at 0.142 ± 0.12.
In the case of RLRTTITPEQLEIRYEKYLLDSNPTRKMLDHIAREVGLKKRVVQVWFQNTRARERK [L14R], the abundance fitness was -0.849 ± 0.096.
In the case of RLRTTITPEQLEICYEKYLLDSNPTRKMLDHIAREVGLKKRVVQVWFQNTRARERK [L14C], the abundance fitness is -1.16 ± 0.25.
RLRTTITPEQLEILYEKYLLDSNPTRKMLDHIWREVGLKKRVVQVWFQNTRARERK [A33W]: the abundance fitness was -0.696 ± 0.4.
For RLRTTITPEQLEILYEKYLLESNPTRKMLDHIAREVGLKKRVVQVWFQNTRARERK [D21E], the abundance fitness was found to be 0.078 ± 0.11.
Turning to RLRTTITPEQLEILYEKYLLYSNPTRKMLDHIAREVGLKKRVVQVWFQNTRARERK [D21Y], the abundance fitness is -0.5 ± 0.063.
On to RLRTTITPEQLEILYEKYLLDSNPTRKMLDHIAREVGLKKRVVQVWFQNTRARARK [E54A], for which the abundance fitness was -0.433 ± 0.059.
Consider RLRTTITGEQLEILYEKYLLDSNPTRKMLDHIAREVGLKKRVVQVWFQNTRARERK [P8G], for which the abundance fitness was -0.504 ± 0.11.
For RLRTTWTPEQLEILYEKYLLDSNPTRKMLDHIAREVGLKKRVVQVWFQNTRARERK [I6W] the value was -0.465 ± 0.072; for RLRTTDTPEQLEILYEKYLLDSNPTRKMLDHIAREVGLKKRVVQVWFQNTRARERK [I6D], -0.759 ± 0.13; for RLRTTITPEQLEILYEKYLLDSNPTRKMLDHIAREDGLKKRVVQVWFQNTRARERK [V36D], -0.27 ± 0.13.
Turning to RLRTTITPEQLEILYEKYLLDSNPTRKMLDHIAREKGLKKRVVQVWFQNTRARERK [V36K], the abundance fitness was -0.726 ± 0.19.
The figure for RLRTTITPEQLEILYEKYLLDSNPTRKMLDHIAREYGLKKRVVQVWFQNTRARERK [V36Y] is -0.586 ± 0.29; for RLRTTITPEQLEILYEKYLLDSNPTRKMLDHIARECGLKKRVVQVWFQNTRARERK [V36C] it is -0.223 ± 0.077.
For RLRTTITPEQLEILYEKYLLDSNPTRKMVDHIAREVGLKKRVVQVWFQNTRARERK [L29V] the value was -0.024 ± 0.062; for RLRTTITPEQLEILYEKYLLDWNPTRKMLDHIAREVGLKKRVVQVWFQNTRARERK [S22W], -0.461 ± 0.072; for RLRTTITPEQLKILYEKYLLDSNPTRKMLDHIAREVGLKKRVVQVWFQNTRARERK [E12K], 0.238 ± 0.12.
For the variant RLRTTITPEQLEILYEKYLLDSNPTRKMLDHIAFEVGLKKRVVQVWFQNTRARERK [R34F], the abundance fitness was -0.101 ± 0.1.
The figure for RLRTTITPEQLEILYEKYLLDSNPTRKMLDHIASEVGLKKRVVQVWFQNTRARERK [R34S] is 0.17 ± 0.084; for RLRTTITPEQLEILYEKYLLDSNPTRKMLDHIANEVGLKKRVVQVWFQNTRARERK [R34N] it is 0.161 ± 0.18; for RLRTTITPEQLEILYEKYLLDSNPTRKMLDHIATEVGLKKRVVQVWFQNTRARERK [R34T] it is -0.02 ± 0.1.
Turning to RLRTTITPEQLEILYEKYLLDSNPTRKMLDHIAKEVGLKKRVVQVWFQNTRARERK [R34K], the abundance fitness was determined as 0.004 ± 0.08.
The figure for RLRTTITPEQLEILYEKYLLDSNPTRKMLDHIAREVGLKKRVVQVWGQNTRARERK [F47G] is -0.913 ± 0.13.
With RLRTTITPEQLEILYEKYLLDSNPTRKMLDHIAREVGLKKRVVQVWYQNTRARERK [F47Y], the abundance fitness is -0.072 ± 0.11.
The figure for RLRTTITPAQLEILYEKYLLDSNPTRKMLDHIAREVGLKKRVVQVWFQNTRARERK [E9A] is -0.069 ± 0.051; for RLRTTITPEQLEILYEKYLLDSNPTRKMLDHIAREVGLKKRVVTVWFQNTRARERK [Q44T] it is -0.053 ± 0.097; for RLRTTITPEQLEILYEKYLLDSNPTRKMLDHIAREVGLKKRVVMVWFQNTRARERK [Q44M] it is -0.132 ± 0.09.
The figure for RLRTTITPEQLEILYEKYLLDSNPTREMLDHIAREVGLKKRVVQVWFQNTRARERK [K27E] is 0.147 ± 0.11; for RLRTTITPEQLEILYEKYLLDSNPTRTMLDHIAREVGLKKRVVQVWFQNTRARERK [K27T] it is -0.147 ± 0.087.
The figure for RLRTTITPEQLEILYEKYLLDSNPTRKMLDHIAREVGLKKRVVQVWFQNTRHRERK [A52H] is -0.172 ± 0.071.
RLRTTITPEQLEILYEKYLLDSNPTRKMLDHIAREVGLKKRVVQVWFQNTRTRERK [A52T]: the abundance fitness was -0.372 ± 0.08.
On to RLRTTITPEQLEILYEKYLLDSNPTRKMLDHIAREVGLKKRVVQVWFQNTRLRERK [A52L], for which the abundance fitness was -0.226 ± 0.069.
Turning to RLRTTITPEQLEILYEKYLLDSNPTRKMLDHIAREVGLKKRVVQVWFQNTRWRERK [A52W], the abundance fitness was -0.347 ± 0.078.
In the case of RLRTTITPEQLEILYEKYLLDSNPTRKMLDHIAREVGLKKRVVQVWFQNTRFRERK [A52F], the abundance fitness is -0.498 ± 0.28.
RLRTTITPEQLEILYEKYLLDSNPTRKMLDHIAREVGLKKRVVQVWFQNTRAFERK [R53F]: the abundance fitness stood at 0.066 ± 0.1.
The figure for RLRTTITPEQLEILYEKYLLDSNPTRKMLDHIAREVGLKKRVVQVWFQNTRATERK [R53T] is 0.021 ± 0.1.
